Test results reported in patent US20220033460A1, “IDENTIFICATION AND USE OF T CELL EPITOPES IN DESIGNING DIAGNOSTIC AND THERAPEUTIC APPROACHES FOR COVID-19” (priority 2020, published 2022).

Tests used:
DRB1*07:01 = DRB1*07:01 (Homo sapiens, UniProt P01903+P01911, A100R/A102G/A103Q/D57E/D86V/E43K/F76Y/K127E/L162R/M171V/P40G/Q125H/Q99D/R33Q/R42Y/R54Q/S133A/S66F/T210M/V115G/Y107V/Y59L/Y89S); format: cell-based; details: for MCR2 construct expression (presentation): 12mer peptides in DRB1*07:01-MCR2
[1] = tested on: TCRs from the BAL of COVID-19 patients; format: cell-based, human

S714-728 (T716I): Spike 15mer 714-728 with the T716I mutation of the B1.1.7 variant
peptide presentation by DRB1*07:01 (FACS staining, MEDi-MA scores) (DRB1*07:01; mutated versus WT peptides): presented as well as the WT
recognition by TCR007 (NFAT activation) [1]: not recognized

S714-725: Spike 12mer peptide cloned into DRB1*07:01-MCR2
MCR2 construct expression (presentation) (DRB1*07:01): expressed well
recognition by TCR007 (NFAT activation) [1]: not

S714-725(T716I): Spike 12mer peptide with T716I cloned into DRB1*07:01-MCR2
MCR2 construct expression (presentation) (DRB1*07:01): expressed well
